Source: patent US9526791B2, “Weakly acidic pH-responsive peptide and liposome containing same” (Taiho Pharmaceutical Co., Ltd., priority 2012, dated 2016)
Where two headings read alike, the source gives them in different places.

Columns and labels:
[1] = type: physicochemical; conditions: for Leakage of calcein (in words): pH 6.5 (pH changed from 7.4 to 6.5); for Calcein leakage rate (%): calcein-encapsulated liposome, 37° C., 10 minutes
Description: • (1) After a peptide-containing lipid membrane was prepared as in Example 4, a calcein (Mw: 622.55) 30-mM solution was added, and calcein-encapsulated liposome 1 was prepared as in Example 4. Unencapsulated calcein was removed by gel filtration (Sephadex G50).
To measure the leakage of the encapsulated calcein from the liposomes, the liposomes were diluted and suspended in buffers having different pHs, and then incubated at 37° C. for 10 minutes. The fluorescence (λex: 488 nm, λem: 517 nm) of the leaked calcein was measured by a plate reader (Infinite M200, produced by Tecan). The fluorescence of the leaked calcein when the liposomes were mixed with 1% Triton-X100 was regarded as complete leakage. The leakage rate was calculated by the following formula. […] Leakage rate(%)=(Fsample−FpH 7.4)/(Ftriton−FpH 7.4)×100
Fsample Fluorescence of calcein leaked from the liposomes at each pH
FpH 7.4: Fluorescence of calcein leaked from the liposomes at a pH of 7.4
Ftriton: Fluorescence of calcein when the liposomes were mixed with 1% Triton-X100.
Calcein was encapsulated in liposome 1 obtained in Example 4, and liposomes 2 and 3 obtained in Example 5, and pH responsiveness was examined as in Test Example 1.
The calcein leakage rate of the calcein-encapsulated liposomes obtained in Examples 4, 6, and 7, and Comparative Examples 4 to 6 at a pH of 7.4 and a pH of 6.5 was calculated as in Test Example 1.

[2] = CD spectra of peptide alone or peptide-introduced liposome under different pH conditions; type: physicochemical; conditions: PBS (−), peptide concentration 20 μM
Description: Peptide compound 1 obtained in Example 1 alone and a peptide-introduced liposome obtained according to Example 4 (each having a peptide concentration of 20 μM) were suspended in PBS (−) with different pHs, and CD (circular dichroism) spectra were recorded on a J-720WI spectropolarimeter (produced by JASCO Corporation).
The “α-helix” represents an α-helix structure, and the “random coil structure” represents a state in which a clear secondary structure is not formed.

[3] = Observation of liposomes into which comparative compound 3 was introduced (aggregation); type: physicochemical; conditions: pH 6.5 or less
Description: Comparative liposome 3 into which comparative compound 3 obtained in Comparative Example 3 had been introduced was produced according to the method described in Example 4, and calcein-encapsulated comparative liposome 3 was prepared by the same production method as in Test Example 1.
Thus, the pH-responsiveness was insufficient.

| Sequence | Leakage of calcein (in words) [1] | Calcein leakage rate (%) ([1]; pH 6.5) | Calcein leakage rate (%) ([1]; pH 7.4) | Secondary structure from CD spectrum ([2]; as the pH was reduced) | Secondary structure from CD spectrum ([2]; pH 7.4) | Calcein fluorescence on attempted encapsulation (liposome stability) ([1]; pH 7.4) | Aggregation of liposomes [3] |
| --- | --- | --- | --- | --- | --- | --- | --- |
| HHGGLLLLHHHAAAAALLLAAAAA [compound 1] | remarkably reduced | 30% | 0% | – | – | – | – |
| HGHGGGGGGGGGAHALLAHAALAH [compound 2] | remarkably reduced | 30% | 0% | – | – | – | – |
| GHHGLALLHALHLAAAALHAAALA [Peptide compound 2] | – | 90% | 0% | – | – | – | – |
| HGHGLALLAHALLAHAALAHAALA [Peptide compound 1] | – | 100% | 0% | sequentially converted into a random coil structure | α-helix | – | – |
| HGHGLALLAHALLAHAAAAL [compound 3] | – | – | – | – | – | fluorescence intensity at the same level as that when Triton treatment was performed | remarkably aggregated |
| EGEGLALLAHALLAHAALAHAALA [Peptide compound 3] | – | 65% | 0% | – | – | – | – |
